Test results published in the DeepSol protein solubility set.

Experiment: soluble on expression in E. coli; label from the status in PepcDB or PDB records

Soluble on expression in E. coli, soluble:
VEGLNPLIPQKSNRGVIDVAIFREYVSGGKDRAAEDRRRHRELVEESIKKNIGNIIAEESIIGQSKDKKIKIPIRSIKEYQFVYGKNGPSVGSGDGTEKRGEKIGEEKTANGGQGVGQAGNQEGEEIYETEITIEELINYLFDDLNLPDIDKKRIAEQESIRSYKNLGYQRKGIPPRLAKKRSVIEKIKRKQAYLRNSRELGDLDESAEEDIAAQETLDGVRKRFPFSEDDLRYRRVREDRKKDFNAVVICIMDVSGSMDQTKKYLARSFYFLLYQFIRLKYANVDVVFIAHTTTAKEVSEDEFFHRGESGGTYISSGYEKALEIIEQRYNPNSWNIYAFHCSDGDNWSEDNKKAVELGLKLCDVCNLFGYGEIVPGYYSTGSTIKDEFQKSIKRDNFSVITITNKDDVLPGLKKLLEKEGE, MRINFEKANSNHINIIFSWLKEPFIQEFWDNTQAHKDDILNFINGRTEPSSYADGKYVYWIASGNGHPFAMLMTIQETSEDEIDDIKLINLSKTGHSYGIDYMIGDKNYFGIGYGARTLIEFIDFFIKEVDPKADTFLIDPASDNPRAKHVYIKAGF, MPYYTNDDNDVDDFTEYDPMPYSGGYDITVTYGRSIPPSDETCYPLSSLSGDAFEYQRPNFSSNHDSSAYDDQALKTEYSSYARPGPVGSGSDFGRKPNSGYGGRTEVEYGRKTESEHGSGYGGRIESDYVKPSYGGHEDDGDDGHKKHSGKDYDDGDEKSKKKEKEKKKDKKKDGNNSEDDEFKKKKKKEQYKEHHDDDDYDEKKKKKKDYNDDDEKKKKKHYNDDDDEKKKKHNYNDDDDEKKKKKEYHDDEDKKKKKHYDNDDDEKKKKKDHRDDDDEKKKKKDKHHKGHD, MGSSHHHHHHSSGLVPRGSHMSLYREVDAFRVDDERRRVPEKVVNDIEVRIRINGGMEQRFTASPQALEEFATGYLLGEGLVDSVDDIVSIEISDNIIDAEIESGDLDIRRELVMGSDCFGGWRQRVEMVGPVDSDLRVRADDIFLAFKRMVKSAVVWRMTGGTHVAALVTGDEFRVFEDVSRHVAVDKVIGSGAMDGVNFRESFIVYSGRMPADMLIKVVRAGVPIIASNAAPTSSGYDAAQRTGLTMLGFVRGKRFNIYSHPERII, MVPAAENLSPIPASIDTNDIPLIANDLKLLETQAKLINILQGVPFYLPVNLTKIESLLETLTMGVSNTVDLYFHDNEVRKEWKDTLNFINTIVYTNFFLFVQNESSLSMAVQHSSNNNKTSNSERCAKDLMKIISNMHIFYSITFNFIFPIKSIKSFSSGNNRFHSNGKEFLFANHFIEILQNFIAITFAIFQRCEVILYDEFYKNLSNEEINVQLLLIHDKILEILKKIEIIVSFLRDEMNSNGSFKSIKGFNKVLNLIKYMLRFSKKKQNFARNSDNNNVTDYSQSAKNKNVLLKFPVSELNRIYLKFKEISDFLMEREVVQRSIIIDKDLESDNLGITTANFNDFYDAFYN, SLQNNQPVEFNHAINYVNKIKNRFQGQPDIYKAFLEILHTYQKEQRNAKEAGGNYTPALTEQEVYAQVARLFKNQEDLLSEFGQFLPDA, MEIDELPSGTQDQKPDIDMNEIVGTHDILMLCFDTLRYDVSVAEEASGGTPVLNSCGNGWEKRHAPGNFTYPSHFAIFAGFLPSPAEPHMLRNRKWLFFPFQAGTGRIPPEGSYAFKEATFVQSLAQVGYETICIGGVNFFSKRNDIGRVFPGYFNKSYWLPTFGCTDKNSAANQVDFAVDKLEKYPADRKVFMYINFSAIHYPNCHYVEGKKKDDKESHAAALRYVDSQLPRLFEAFRRRSDTLVIALSDHGTCYGEDGYEYHCISHEKVYTVPYKHFILRKLEHHHHHH, SLRLPTVFRQMRPVSRVLAPHLTRAYAKDVKFGADARALMLQGVDLLADAVAVTMGPKGRTVIIEQSWGSPKVTKDGVTVAKSIDLKDKYKNIGAKLVQDVANNTNEEAGDGTTTATVLARSIAKEGFEKISKGANPVEIRRGVMLAVDAVIAELKKQSKPVTTPEEIAQVATISANGDKEIGNIISDAMKKVGRKGVITVKDGKTLNDELEIIEGMKFDRGYISPYFINTSKGQKCEFQDAYVLLSEKKISSIQSIVPALEIANAHRKPLVIIAEDVDGEALSTLVLNRLKVGLQVVAVKAPGFGDNRKNQLKDMAIATGGAVFGEEGLTLNLEDVQPHDLGKVGEVIVTKDDAMLLKGKGDKAQIEKRIQEIIEQLDVTTSEYEKEKLNERLAKLSDGVAVLKVGGTSDVEVNEKKDRVTDALNATRAAVEEGIVLGGGCALLRCIPALDSLTPANEDQKIGIEIIKRTLKIPAMTIAKNAGVEGSLIVEKIMQSSSEVGYDAMAGDFVNMVEKGIIDPTKVVRTALLDAAGVASLLTTAEVVVTEIPKEEKDPGMGAMGGMGGGMGGGMF, MGSDKIHHHHHHMKIDLIISADDIKEEKVKNKTAVVIDMLRATSVITTALNNGCKRVVPVLTVEEALKKVKEYGKDAILGGERKGLKIEGFDFSNSPMEYTEDVVKGKTLIMTTTNGTRAIKGSETARDILIGSVLNGEAVAEKIVELNNDVVIVNAGTYGEFSIDDFICSGYIINCVMDRMKKLELTDAATTAQYVYKTNEDIKGFVKYAKHYKRIMELGLKKDFEYCCKKDIVKLVPQYTNGEIL, MEIKRILVSRTDKIGDLVLSIPSFFMLKKMYPNAELVVIVRKYNVDIVKNLPYIDRIVIIDEYSKAELLEKIAYFKADVFIALYNDSYIASLARASKAKIKIGPISKLSSFFTYNKGVLQKRSLSLKNEGQYNLDLVTKLDRKRFAILYELNTKLEHHHHHH, QDDSRYTKFLTQHHDAKPKGRDDRYCERMMKRRSLTSPCKDVNTFIHGNKSNIKAICGANGSPYRENLRMSKSPFQVTTCKHTGGSPRPPCQYRASAGFRHVVIACENGLPVHFDESFFSL, MKRKPAVAGYFYPERKDELYSLLSSFAIPEQHVSGTIIGAVVPHAGIIYSGRTAMYSYRAIEKSAVRDFVIIGPNHRPLTPYASLYPEGEWSTPLGDALINDRMAEALYRDSNYIVKDEESHLMEHSVEVQIPFLQYLFGDGFRFVPVILGDQEIDVARDIGEAIMKIEDPFIFIASSDFTHYEDAKRVEKKDMDLISAILTLDLDKFYSVLEKENVTACGYGAIAALMYYTKKRGGRMIFLNHSNSGDVTGDYSEVVGYASLVSVIPLEHHHHHH, MSLSDYKVGEELSDKEGVEYFKELSKRPVQEWPNKNLSINDVPKGKQGDLIRYGIELLSKTESTLGPYSKLKKTSNEVNCISCHMDNDGNGLPGTKKYVIPFLNILNNYPRLDIETMKIISVEDRIRGMGGTDSHRFPNDSKEMKAILAYFKWLKEAYGIKDGVKLEGDFFAKMNFPNRPADPVRGKKLFEENCVACHGERGLGVKNDNYEQGSGHLYPSLLIYPDGGHMAMIPFLARFLKSAMPFGASADNPILSDEDALDIAAYVNTGFVRMPITTTENRAGLDTAYSKSPSLKPEYFASPQQNLDPKEYIKVKYGPWKNPNHFPGEGHHHHHH

Soluble on expression in E. coli, not soluble:
MSDTLRPYKNLFPGIGQRVMIDTSSVVIGDVRLADDVGIWPLVVIRGDVNYVAIGARTNIQDGSVLHVTHKSSSNPHGNPLIIGEDVTVGHKVMLHGCTIGNRVLVGMGSIVLDGAIIEDDVMIGAGSLVPQHKRLESGYLYLGSPVKQIRPLSDAERSGLQYSANNYVKWKDDYLSQDNHIQP, MGSDKIHHHHHHMMTKTKADKYPQRVRNELRFRELTVLRVERAGAAFQRIVLGGEALEGFASHGFDDHTKLFFPEPGAAFTPPQVTEEGIDWGEGVRPATRDYTPLYDAERHELAYDFYIHDGGIASRWALEAKVGDKLVIGGPRGSLVVPEDYAWQLYVCDESGMPALRRRLLGLRQLPARPQVTAIVTIADASYKDYLADLDGFNIEWVVGHNPAFVAERLAQVKVPAEDYFIWLTGEGAVVKSLLARFEDESIDQQLVRSQAYWHSK, MGHHHHHHSHMPADRSIWQESCPVSFSALKKWIFLPNSTKIKEKRSSFPVRGPLTFDGWYPRDHKPSAPPTNEEERRAAAVKYGLRPEDYQSMDKDDVIKFAGDYPDLGVITYDHKDPYEAWTDRQNRRNWGELVPIDMMRYRGDRLTFTGLEAEDYTTWNSIVMCLRVLVPMALLAWYFTNEHPNALRWKNPAMPKQYSYDFYRAYPFDDPRKYPIVNYSFDLE, MGVYPPSEDSFLIIEYASCSGKAIEIGCGTGIVSICFLKRGCDIEAVDISDLAVECAKDNASRNGLTLKVYRSDLFSGVSGTYDTILFNAPYIPVEGEDASWSGGRNLEVVSRFLGQAREHLSASGQIYIVLSDLTDNEGMFRMMGYDYFIIKKISFEFEAIVLYKLTLKALEHHHHHH, MGSDKIHHHHHHMDFKQVQQSFIDYIRDPSRPLPADTDVRRMQVYRELFFNNVLGFVSNGFPVLKSLYSEEEWLALVQSFFSQHDCQSPIFIDIAGEFLDFLQQQYQPTANDPVFMLELAHYEWLELAVAVAQASGDESQLSPAQIPMQALCLSKTARVAQYHFEVQHIRQDYRPQQQLDTPVFFCLYQDADCEVCFLQLNPLSAQVLAFLQAQGQASFKEIVDWLTITYPQMAPEIIAQGCTQLLEQLAAKGIVRGRQS, TATRVRPREYALRYPYMQVNRPGMVSWLVFDLDHANALAWDDAGLPAPNLMVRNRKSGHSQLFYAVPSVCTTENARTKPIQYMKAIYAAFAARLDADVDYHGGPVAKTPGHPWWETTEFHSHVYELGELASAVELTVKPWATGPKLDQVSHSRHCILFEQLRYFAYSIVNRERELGSFESFMRSLDAYAYNHNSFLKQGFSENLPLSSIRATVKSVGRWTWDRYTGDRRCHRGAMQLDGSLSLTERQSLAAKRTNELRH, MPAPLWSPSAERIAASRMEAFRRFVNQRHALGLVDYPALHAWSVQRREAFWQAIVDFFEVRFQQPPRAVLEEGAQMPSARWFPGATLNFAEHLLRRRDDAPALIAVSEDGRREVLSHAELARHVAGLQKRLAALGIGPGDRVAALMPNTWQTVVGMLATASLGATWSSCSPDFGTQGVIDRFGQIEPRVLIACAGYRYAGKSLDLTAKLNEVLAGLPGLEQLLVVPYDRPQAQPQDYRCQAQVALWDGFYQAEGEPVFTPVPFEQPLYILYSSGTTGVPKCIVHATGGVLLQHLKEHGLHTDLGDGDRLFYYTTCGWMMWNWLASGLAVGASLVLYDGSPFHPGPERLLDLIDAEDIAVFGASAKYLAALEKAGMRPRHSHRLDSLRTLLSTGSPLAHESFDYVYRELKSDLCLSSISGGTDIVSCFAIGNPVLPVWRGELQCKALGMAVEIWDDDGRRLASGKGELVCTRHFPSIPLGFWNDPDGTRFHDAYFASFPGVWAHGDYAEETVHGGLVIHGRSDAVLNPGGVRIGTAEIYRQVEKVEEVLESIAIGQDWQGDVRVLLFVRLRDGVRLDEPLRERIRQTIRANATPRHVPAKIIQVADIPRTLSGKIVELAVRNVIHGRPVKNTDALANPQALELYRDLAEL, AVELAEEVTNLKQVRTMLEAIIQSSDEAISVVDENGIGLLINKAYTKMTGLSEKEVIGKPANTDISEGESMHLKVLETRRPVRGVRMKVGPNEKEVIVNVAPVIVDGILKGSVGVIHDVS, MNELLQDRVPPQNIEAEQAVLGSIFLDADVLIEAMEYVEPKDFYRRSHQLIFQTMMTLSDRNEAIDVVTIKDRLEQENLLEDVGGLSYLSDLALAVPTAANVIYYAKIVEQKSLLRNLIQTATEIVTKGFEQGEDVESILDDAERSILEVSEKRNRSGFLSISDVLNTTIANIDQLYQNDEEITGLPTGYQALDKMTAGLQAEELIILAARPAVGKTAFALNIAQNVGTKTDKAVAIFSLEMGAESLVNRMLCAEGSIEASHLRTGQLSEEEWQNLIIAMGSLSRANIYIDDTPGIKITEIRAKCRKLAQEKGNLGLILIDYLQLIEGTGKENRQQEVSDISRQLKKLAKELKVPVIALSQLSRGVEQRQDKRPVLSDIRESGSIEQDADIVAFLYRDDYYDRGEGEDGDHEPPEVDNVVEVIIEKNRSGARGTVELLFIKEYNKFSSLSPRTEF
